Substitutions are numbered along the chain they refer to.
B1: 214T: single substitution 214T in SEQ ID NO:2 (protein)
chain: MGPTPTATAAGAAVAAASAAEQAAFRLVGHRNFVRFNPRSDRFQTLAFHHVELWCADAASAAGRFSFALGVPLAARSDLSTGNSAHASLLLRSGSLSLLFTAPYAHGADAATAALPSFSAAAARRFAADHGLAVRAVALRVADAEDAFRASVAAGARPAFGPVDLGRGFRLAEVELYGDVVLRYVSYPDGAAGEPFLPGFEGVASPGAADYGLTRFDHIVGNVPELAPAAAYMAGFTGFHEFAEFTTEDVGTTESGLNSMALANNSENVLLPLNEPVHGTKRRSQIQTFLDHHGGPGVQHIALASDDVLRTLREMRARSAMGGFEFLPPPLSDYYDGVRRCAGDVLTEAQINECQELGVMVDRDDQGVLLQIFTKPVGDRPTFFLEIIQRIGCMEKDEKGQEYQKGGCGGFGKGNFGQLFKSIEDYEKSLEAKQAAAAATAQGS
modifications: Zea mays variant form created by artificial means.
B2: 342V: single substitution 342V in SEQ ID NO:2 (protein)
chain: B1 chain with T214S, A342V
modifications: Zea mays variant form created by artificial means.
B3: P056028-F-05 (protein)
chain: B1 chain with A191G, T214S, Q366E
modifications: Zea mays variant form created by artificial means.

Experiments:
Format in all cases: biochemical, Z. mays
[1] = tested on: 4-hydroxyphenylpyruvate dioxygenase (HPPD); assay: HPPD activity coupled assay with HGD; substrate saturation kinetic parameters (kcat, KM)
In short: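 Coupled continuous assay: His-tagged HPPD (5 to 240 nM, E. coli-expressed, Ni-NTA-purified) with 50 nM P. aeruginosa HGD in 25 mM Hepes pH 7, 2 mM ascorbate, 10 μM FeSO4; maleylacetoacetate followed at 320 nm. KM and Vmax from Lineweaver-Burke fits over 3.33–100 μM HPP.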

[2] = tested on: 4-hydroxyphenylpyruvate dioxygenase (HPPD); assay: Insensitivity parameter (ON × OFF) and trait fitness (ON × OFF × kcat/KM or × kcat); parameters: key to ON × OFF / Insensitivity, mesotrione, ON × OFF / Insensitivity, tembotrione, ON × OFF / Insensitivity, topramezone, ON × OFF / Insensitivity, sulcotrione, ON × OFF / Insensitivity, isoxaflutole (DKN), ON × OFF: insensitivity = ON rate ratio × OFF rate ratio (surrogate for KD); settings: for ON × OFF × kcat, Value / ON × OFF × kcat, Fold vs wt / ON × OFF, fold vs wt / ON × OFF (parameters with tembotrione): Table 5; for ON × OFF × kcat, Fold vs wt / ON × OFF, fold vs wt: fold vs maize wild type HPPD; for ON × OFF (parameters with tembotrione): insensitivity parameter
In short: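 Calculated, not measured directly: ON rate ratio × OFF rate ratio gives an insensitivity parameter serving as a KD surrogate.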

[3] = tested on: 4-hydroxyphenylpyruvate dioxygenase (HPPD); assay: OFF rate ratio: release of inhibitor from pre-formed enzyme-inhibitor complex; settings: for OFF ratio (parameters with tembotrione): Table 5
In short: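 HPPD (7.2 μM) pre-incubated 1 h at RT with inhibitor (8 μM), then diluted into 25 mM Hepes pH 7, 2 mM ascorbate, 10 μM FeSO4, 100 μM HPP, 50 nM HGD; A320 followed 12 min. Ratio = steady-state rate with inhibitor over initial rate of inhibitor-free enzyme.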

[4] = tested on: 4-hydroxyphenylpyruvate dioxygenase (HPPD); assay: Estimate of kcat from initial rate at saturating hydroxyphenylpyruvate without inhibitor (ON rate ratio assay)
In short: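 Reactions used 60 or 120 nM HPPD and saturating 100 μM hydroxyphenylpyruvate without inhibitor. kcat was estimated from the initial rate at the known enzyme concentration.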

[5] = tested on: 4-hydroxyphenylpyruvate dioxygenase (HPPD); assay: ON rate ratio: HPPD reaction rate with vs without inhibitor in the 70 to 90 second interval; settings: for ON ratio (parameters with tembotrione): Table 5
In short: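 Time courses of HPPD reactions, 60 or 120 nM enzyme with 100 μM HPP substrate, run with and without 4 μM inhibitor (e.g. mesotrione, tembotrione). Value is the rate with inhibitor over rate without, taken over 70–90 s; higher ratio reflects slower kON.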

[6] = Table 6, single substitutions in SEQ ID NO:2
[7] = DKN (diketonitrile form of isoxaflutole)
[8] = Table 5, single substitutions in Round 7 variant 9070 (SEQ ID NO:2), estimate from initial rate at saturating hydroxyphenylpyruvate without inhibitor
[9] = substrate saturation kinetic analysis
[10] = Table 7, tembotrione, combinatorial variants

Molecule | Km ([1]; Table 6) [µM] | kcat [1, 6] [s⁻¹] | Insensitivity parameter, ON × OFF [2, 7] | Insensitivity parameter, ON × OFF ([2]; Mesotrione, Table 6) | Insensitivity parameter, ON × OFF ([2]; Sulcotrione) | ON × OFF × kcat, Value ([2]; tembotrione) | ON × OFF × kcat, Fold vs wt ([2]; tembotrione) | ON × OFF, fold vs wt ([2]; tembotrione) | ON × OFF (parameters with tembotrione) ([2]; tembotrione) | Insensitivity parameter, ON × OFF ([2]; Tembotrione) | Insensitivity parameter, ON × OFF ([2]; Topramezon) | OFF ratio (parameters with tembotrione) ([3]; tembotrione) | kcat [4, 8] [s⁻¹] | ON ratio (parameters with tembotrione) ([5]; tembotrione) | also measured
B1 | 2.94 | 1.4 | 0.21 | 0.41 | 0.50 | 4.03 | 3.76 | 20.2 | 0.10 | 0.17 | 0.23 | 0.14 | 0.653 | 0.74 | –
B2 | 2.59 | 0.903 | 0.22 | 0.42 | 0.51 | 4.08 | 3.82 | 19.7 | 0.10 | 0.17 | 0.23 | 0.13 | 0.677 | 0.78 | –
B3 | – | – | – | – | – | – | – | – | – | – | – | – | – | – | Km [1, 9]: 2.39 µM; kcat [1, 9]: 0.538 s⁻¹; ON × OFF ([2]; Megatable 3, shuffled variants): 0.276; ON × OFF × kcat ([2]; Megatable 3, shuffled variants): 7.57; ON × OFF [2, 10]: 0.276; ON × OFF × kcat [2, 10]: 7.57; Insensitivity, mesotrione, ON × OFF ([2]; inhibitor mesotrione): 0.64; Insensitivity, mesotrione, Trait Fitness ([2]; inhibitor mesotrione): 8.7; Insensitivity, tembotrione, ON × OFF ([2]; inhibitor tembotrione): 0.28; Insensitivity, tembotrione, Trait fitness ([2]; inhibitor tembotrione): 3.74; OFF rate ratio [3, 10]: 0.395; Insensitivity, mesotrione, Rate ratio OFF ([3]; inhibitor mesotrione): 1.00; Insensitivity, tembotrione, Rate ratio OFF ([3]; inhibitor tembotrione): 0.39; kcat ([4]; Megatable 3, shuffled variants): 0.457 s⁻¹; kcat ([4]; Table 7, combinatorial variants): 0.457 s⁻¹; ON rate ratio [5, 10]: 0.700; Insensitivity, mesotrione, Rate ratio ON ([5]; inhibitor mesotrione): 0.64; Insensitivity, tembotrione, Rate ratio ON ([5]; inhibitor tembotrione): 0.70

— patent US11015206B2, “Compositions and methods comprising sequences having hydroxyphenylpyruvate dioxygenase (HPPD) activity” (PIONEER HI-BRED INTERNATIONAL, INC., priority 2014, dated 2021)
